This assay concerns the target T1, prolyl hydroxylase domain 2, PHD2_(181–426) (human, UniProt Q9GZT9 181-426).
T1 construct: Used apo, or with Fe(II), Zn(II), 2OG, succinate or fumarate; also called tPHD2; apo-tPHD2; source: recombinantly expressed
The experiment in a line: ITC; apo-tPHD2. Conditions: both partners purified.

Among the data in paper PMC5885369, “2-Oxoglutarate regulates binding of hydroxylated hypoxia-inducible factor to prolyl hydroxylase domain 2† †Electronic supplementary information (ESI) available: Details of experimental procedures and additional experiments. See DOI: 10.1039/c8cc00387d” (Chemical Communications (Cambridge, England), 2018) are Kd values, retold here.

Square brackets hold non-standard residues; d marks the D form. Ends that are not written are not given here. Hyp = O=C(O)[C@@H]1C[C@@H](O)CN1

T1 sequence (Q9GZT9 181-426): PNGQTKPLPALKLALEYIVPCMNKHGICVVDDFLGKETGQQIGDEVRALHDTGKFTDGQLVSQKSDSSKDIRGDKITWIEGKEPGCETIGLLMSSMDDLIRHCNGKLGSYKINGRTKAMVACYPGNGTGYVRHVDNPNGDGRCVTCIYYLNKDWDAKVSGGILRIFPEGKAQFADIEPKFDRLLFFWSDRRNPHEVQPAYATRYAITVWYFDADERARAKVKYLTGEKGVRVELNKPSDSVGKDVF

B1: hydroxylated 19-mer HIF-1α CODD peptide (peptide)
chain: DLDLEMLA[Hyp]YIPMDDDFQL
As for B1, binding was characterised by a dissociation constant (Kd) of 4.6 ± 1.4 µM.
